{"source": "paper PMC10284548", "key": {"AsLOV2 [1]": {"biological_target": "AsLOV2", "experiment": "single-molecule force spectroscopy (dual-beam optical tweezers); constant load of 11 or 16 pN, dark; AsLOV2 and Zdk2 on one chain joined by (GGS)42, tethered by DNA handles between two beads; PBS, 1 mM TCEP, pH 7.4"}, "AsLOV2 [2]": {"biological_target": "AsLOV2", "experiment": "single-molecule force spectroscopy (dual-beam optical tweezers); constant load of 11 or 16 pN under 488-nm light (laser intensity 3 and 30%, pooled); AsLOV2 and Zdk2 on one chain joined by (GGS)42; PBS, 1 mM TCEP, pH 7.4"}, "AsLOV2(V416L) [3]": {"biological_target": "AsLOV2(V416L)", "experiment": "single-molecule force spectroscopy (dual-beam optical tweezers); jump experiments between 0 and 20.5 ± 1 pN to obtain unbinding and rebinding lifetimes; AsLOV2 and Zdk2 on one chain joined by (GGS)42; PBS, 1 mM TCEP, pH 7.4"}, "AsLOV2 [4]": {"biological_target": "AsLOV2", "experiment": "single-molecule force spectroscopy (dual-beam optical tweezers); jump experiments between 0 and 20.5 ± 1 pN to obtain unbinding and rebinding lifetimes; AsLOV2 and Zdk2 on one chain joined by (GGS)42; PBS, 1 mM TCEP, pH 7.4"}, "AsLOV2(V416L) [5]": {"biological_target": "AsLOV2(V416L)", "experiment": "single-molecule force spectroscopy (dual-beam optical tweezers); constant velocity (force-extension) experiments, 200 and 500 nm/s; AsLOV2 and Zdk2 on one chain joined by (GGS)42, tethered by DNA handles between two beads; PBS, 1 mM TCEP, pH 7.4, oxygen scavenger; dark"}, "AsLOV2 [6]": {"biological_target": "AsLOV2", "experiment": "single-molecule force spectroscopy (dual-beam optical tweezers); constant velocity (force-extension) experiments, 200 and 500 nm/s; AsLOV2 and Zdk2 on one chain joined by (GGS)42, tethered by DNA handles between two beads; PBS, 1 mM TCEP, pH 7.4, oxygen scavenger; dark"}}}
{"substance": "Zdk2 (designed binder)", "values": [{"measurement": "average lifetime of the bound state at 11 pN, without light", "setting": "AsLOV2 [1]", "result": 174, "unit": "s"}, {"measurement": "average lifetime of the bound state at 16 pN, without light", "setting": "AsLOV2 [1]", "result": 74, "unit": "s"}, {"measurement": "percent of experiments at 11 pN without dissociation within 9 min", "setting": "AsLOV2 [1]", "result": 30, "unit": "%"}, {"measurement": "average lifetime of the bound state at 11 pN, with 488-nm light", "setting": "AsLOV2 [2]", "result": 47, "unit": "s"}, {"measurement": "average lifetime of the bound state at 16 pN, with 488-nm light", "setting": "AsLOV2 [2]", "result": 45, "unit": "s"}, {"measurement": "average lifetime of the peptide-bound state under force", "setting": "AsLOV2(V416L) [3]", "result": 0.18, "unit": "s"}, {"measurement": "rebinding time at zero force", "setting": "AsLOV2(V416L) [3]", "result": 0.44, "unit": "s"}, {"measurement": "average lifetime of the peptide-bound state under force", "setting": "AsLOV2 [4]", "result": 0.56, "unit": "s"}, {"measurement": "rebinding time at zero force", "setting": "AsLOV2 [4]", "result": 0.13, "unit": "s"}, {"measurement": "unbinding force", "setting": "AsLOV2(V416L) [5]", "result": 22, "unit": "pN"}, {"measurement": "unbinding force", "setting": "AsLOV2 [6]", "result": 24, "unit": "pN"}]}
